B1: single chain triplebody sctb [123×ds16×33] (other)
chain: MADYKDIVMTQSHKFMSTSVGDRVNITCKASQNVDSAVAWYQQKPGQSPKALIYSASYRYSGVPDRFTGRGSGTDFTLTISSVQAEDLAVYYCQQYYSTPWTFGGGTKLEIKRGGGGSGGGGSGGGGSGGGGSEVKLVESGGGLVQPGGSLSLSCAASGFTFTDYYMSWVRQPPGKALEWLALIRSKADGYTTEYSASVKGRFTLSRDDSQSILYLQMNALRPEDSATYYCARDAAYYSYYSPEGAMDYWGQGTSVTVSSASGAGGGGSGGGGSGGGGSGGGGSAAADYKDIVLTQSPASLAVSLGQRATISCKASQSVDFDGDSFMNWYQQKPGQPPKLLIYTTSNLESGIPARFSASGSGTDFTLNIHPVEEEDTATYYCQQSNEDPYTFGCGTKLELKRGGGGSGGGGSGGGGSGGGGSQVTLKESGPGILQPSQTLSLTCSFSGFSLRTSGMGVGWIRQPSGKCLEWLAHIWWDDDKRYNPALKSRLTISKDTSSNQVFLKIASVDTADTATYYCAQINPAWFAYWGQGTLVTVSRGGGGSGGGGSGGGGSGGGGSMADYKDIVMTQSHKFLLVSVGDRVSITCKASQDVSTAVAWYQQKPGQSPKLLIYSASYRYTGVPDRFIGSGSGTDFTLTISSVQAEDLADYFCQQHYSTPLTFGAGTKLEIKRGGGGSGGGGSGGGGSSGGGSEVQLKESGPGLVAPSQSLSITCTVSGFPLTSYGVSWVRQPPGKGLEWLGVIWGDGSTNYHSALISRLSISKDNSKSQVFLKLNNLQTDDTATYYCARDTYYPYYAMDYWGQGTSVTVSS
notes: also called CD123×dsCD16×CD33
B2: CD123-specific scFv clone 43 (scFv)
scFv: MADYKDIVMTQSHKFMSTSVGDRVNITCKASQNVDSAVAWYQQKPGQSPKALIYSASYRYSGVPDRFTGRGSGTDFTLTISSVQAEDLAVYYCQQYYSTPWTFGGGTKLEIKRGGGGSGGGGSGGGGSGGGGSEVKLVESGGGLVQPGGSLSLSCAASGFTFTDYYMSWVRQPPGKALEWLALIRSKADGYTTEYSASVKGRFTLSRDDSQSILYLQMNALRPEDSATYYCARDAAYYSYYSPEGAMDYWGQGTSVTVSS
notes: Murine scFv from a phage display library, expressed in E. coli from pAK400, carries a hexahistidine tag

Key:
[1] = target: T1, CD33 (human, UniProt P20138 18-364); test: calibrated flow cytometry on U937 cells
T1 construct: whole, on cells; also called CD33 on U937 cells
Experimental: (§1) Immunofluorescence analysis was performed on a FACSCalibur instrument using CellQuest software (Becton Dickinson, Heidelberg, Germany) as described (Schwemmlein et al, 2006). Briefly, 1×10⁴ events were collected for each sample, and whole cells were analyzed using appropriate scatter gates to exclude cellular debris and aggregates. […] KD values were determined by calibrated flow cytometry, as described (Benedict at al, 1997). The highest mean fluorescence value was set to 100%, and all data points were normalized to this value. The experiments were repeated 6 times. The KD values were calculated using a nonlinear regression curve fit.

[2] = target: T2, human CD16 (FcγRIII) (human, UniProt P08637 17-254); test: calibrated flow cytometry on CD16-transfected CHO cells
T2 construct: whole, on cells
Experimental: as §1

[3] = target: T3, human CD123 (alpha subunit of the interleukin-3 receptor) (human, UniProt P26951 19-378); test: calibrated flow cytometry on CD123-transfected 293 cells
T3 construct: whole, on cells; also called IL-3Rα
Experimental: as §1

[4] = target: T4, CD123 and CD33 on double positive MOLM-13 cells (human, UniProt P26951 19-378; P20138 18-364); test: calibrated flow cytometry on CD123 and CD33 double positive MOLM-13 cells (avidity)
T4 construct: whole, on cells; Two separate surface antigens on the same cell, not a complex; also called CD33/CD123
Experimental: as §1

[5] = target: T3, human CD123 (alpha subunit of the …); test: calibrated flow cytometry

T3 sequence (P26951 19-378): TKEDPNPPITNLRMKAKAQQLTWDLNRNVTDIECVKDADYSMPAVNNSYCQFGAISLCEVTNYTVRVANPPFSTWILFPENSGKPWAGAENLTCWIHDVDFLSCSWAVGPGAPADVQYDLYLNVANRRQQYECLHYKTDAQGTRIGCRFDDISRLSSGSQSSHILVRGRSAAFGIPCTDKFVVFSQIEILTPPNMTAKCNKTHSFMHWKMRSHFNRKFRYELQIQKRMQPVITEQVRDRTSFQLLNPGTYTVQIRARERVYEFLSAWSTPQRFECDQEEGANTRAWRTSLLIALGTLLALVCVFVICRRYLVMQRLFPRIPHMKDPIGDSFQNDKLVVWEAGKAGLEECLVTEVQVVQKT
T1 sequence (P20138 18-364): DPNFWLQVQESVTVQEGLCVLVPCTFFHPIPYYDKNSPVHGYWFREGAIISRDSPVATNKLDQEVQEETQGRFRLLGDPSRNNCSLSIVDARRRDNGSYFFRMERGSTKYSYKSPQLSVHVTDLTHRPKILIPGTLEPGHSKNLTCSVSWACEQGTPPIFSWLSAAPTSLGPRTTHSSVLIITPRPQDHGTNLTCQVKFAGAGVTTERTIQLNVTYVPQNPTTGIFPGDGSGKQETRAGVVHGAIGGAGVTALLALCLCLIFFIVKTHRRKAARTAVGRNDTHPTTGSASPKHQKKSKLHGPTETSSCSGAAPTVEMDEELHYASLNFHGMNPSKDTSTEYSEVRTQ
T4 sequence (P26951 19-378, chain 1 of 2): as the sequence (P26951 19-378) above
T4 sequence (P20138 18-364, chain 2 of 2): as the sequence (P20138 18-364) above
T2 sequence (P08637 17-254): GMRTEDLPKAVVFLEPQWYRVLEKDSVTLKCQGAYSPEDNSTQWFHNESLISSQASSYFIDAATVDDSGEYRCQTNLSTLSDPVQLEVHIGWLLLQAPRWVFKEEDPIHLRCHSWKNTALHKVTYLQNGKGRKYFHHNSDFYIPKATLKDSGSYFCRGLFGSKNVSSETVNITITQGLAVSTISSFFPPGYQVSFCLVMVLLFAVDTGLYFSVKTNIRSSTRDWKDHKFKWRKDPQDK

Binder | Kd [1] | Kd [2] | Kd [3] | Kd [4] | Kd [5]
B1 | 17.8 nM | 21.7 nM | 18.8 nM | 13.5 nM | –
B2 | – | – | – | – | 4.5 nM

From patent US20120328619A1 (published 2012)
